# Measurements as given in patent EP1117687B1.
# Target: Mouse MHC Class I (mouse B6 class I antigens, H-2^b: D^b or K^b) on RMA-S cells (mouse)
# Experiment: RMA-S MHC stabilisation, flow cytometry with FITC anti-D^b or anti-K^b
row,Molecule,Binding Affinity to Mouse MHC Class I (percent increase of D^b or K^b on RMA-S cells) [%]
1,WT1 peptide P118-126 …,2
2,WT1 peptide P119-127 …,2
3,WT1 peptide P122-130 …,1
4,WT1 peptide p126-134 …,79
5,APYLPSCLE [WT1 peptide P131-139 …],1
6,MFPNAPYLP [WT1 peptide P127-135 …],2
7,SSGQARMFP [WT1 peptide P121-129 …],1
8,QARMFPNAP [WT1 peptide P124-132 …],1
9,PNAPYLPSC [WT1 peptide P129-137 …],1

# Next, values leading:
row,Binding Affinity to Mouse MHC Class I (percent increase of D^b or K^b on RMA-S cells) [%],Molecule
1,1,WT1 peptide P120-128 …
2,1,WT1 peptide P123-131 …
3,1,WT1 peptide P125-133 …
4,1,WT1 peptide P128-136 …
5,79,WT1 peptide P130-138 …
6,2,PSQASSGQA [WT1 peptide P117-125 …]
